Measurements published in patent US20240238445A1, “INHIBITORS AND USES THEREOF” (NEURACLE SCIENCE CO., LTD., priority 2021, published 2024).

Tests used:
[1] = biological target: binding of FAM19A5 protein to LRRC4B (amino acids 453-576)-hFc (Homo sapiens, UniProt Q7Z5A7); assay: Competitive inhibition assay, plate coated with LRRC4B (amino acids 453-576)-hFc, peptides at 20 nM
Excerpt: Next, to assess whether polypeptides comprising the binding domains of LRRC4 or LRRC4C proteins can have similar inhibitory effects on LRRC4B protein binding, the following synthetic peptides were constructed: (1) FBC4-23 (contains the binding domain of the LRRC4 protein, i.e., YSFFTTVTVETTE); and (2) FBC4C-23 (contains the binding domain of the LRRC4C protein, i.e., FSYFSTVTVETME). Then, the ability of the peptides to inhibit the binding of LRRC4 protein family members to FAM19A5 protein was assessed using a competitive inhibition assay. Briefly, plates were coated with 100 nM of either LRRC4B protein fragment #1 (amino acids 36-576 of SEQ ID NO: 2; SEQ ID NO: 5) or LRRC4B protein fragment #2 (amino acids 453-576 of SEQ ID NO: 2; SEQ ID NO: 7). Then, recombinant FAM19A5 protein (5 ng/ml for plates coated with LRRC4B fragment #1; and 1 ng/mL for plates coated with LRRC4B fragment #2) was added to the plates in combination with 20 nM of the FBC4-23, FBC4C-23, and FB-20 peptides. The plates were incubated at 37° C. and then, the amount of FAM19A5 protein bound to the coated LRRC4B protein fragments was assessed using HRP-conjugated anti-FAM19A5 (1-65) antibody.
Next, to determine the minimal sequence required to inhibit the interaction of FAM19A5 and members of the LRRC4 protein family, ten FB-20 peptide variants were constructed by serially deleting one or more amino acids from the N-terminus or C-terminus of the FB-20 peptide. Then, a competitive inhibition assay was used to assess the ability of the different FB-20 peptide variants to inhibit the interaction between FAM19A5 and LRRC4B protein. Again, plates were coated with 100 nM of either LRRC4B protein fragment #1 (amino acids 36-576 of SEQ ID NO: 2; SEQ ID NO: 5) or LRRC4B protein fragment #2 (amino acids 453-576 of SEQ ID NO: 2; SEQ ID NO: 7). Then, recombinant FAM19A5 protein (5 ng/ml for plates coated with LRRC4B fragment #1; and 1 ng/mL for plates coated with LRRC4B fragment #2) was added to the plates in combination with 20 nM of the different peptides described above. After incubating the plates at 37° C., the amount of FAM19A5 protein bound to the coated LRRC4B protein fragments was assessed using HRP-conjugated anti-FAM19A5 (1-65) antibody.
To identify the critical amino acid residues, multiple FB-20 peptide mutants were constructed, in which the individual residues of the core binding domain (i.e., YTYFTTVTVETLE; SEQ ID NO: 15) were substituted with alanine (A) or asparagine (N). Then, the ability of these FB-20 peptide mutants to inhibit the interaction between LRRC4B and FAM19A5 proteins was assessed, as described in Examples 3 and 4.

[2] = biological target: T1, FAM19A5 isoform 2 - LRRC4B protein complex in HEK293 cells (Homo sapiens, UniProt Q7Z5A7); assay: Immunofluorescence: dissociation of FAM19A5 from full-length LRRC4B in HEK293 cells; assay type: cell-based; conditions: HEK293 cells expressing FAM19A5 isoform 2 and LRRC4B, treated 30 minutes
T1 construct: expressed in transfected cells; host or cells: HEK293
T1 sequence (Q7Z5A7 1-125 isoform Q7Z5A7-2, one chain of several): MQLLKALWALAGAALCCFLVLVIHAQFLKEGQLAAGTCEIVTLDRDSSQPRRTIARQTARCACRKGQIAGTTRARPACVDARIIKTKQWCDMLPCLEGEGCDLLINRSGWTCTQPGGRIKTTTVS
Method: Since LRRC4B protein fragments containing the binding domain described in Example 2 (e.g., LRRC4B (453-576); i.e., construct #11 in Table 6) was able to bind to FAM19A5 protein with high affinity, it was next assessed whether such protein fragments could compete with naturally existing LRRC4B protein for binding to FAM19A5 protein, and thereby, dissociate the FAM19A5-LRRC4 protein family complex. Briefly, HEK293 cells expressing both FAM19A5 isoform 2 and LRRC4B protein were treated in vitro for 30 minutes with either LRRC4B (453-576)-hFc or mutant LRRC4B (453-576)-hFc (includes alanine substitutions at positions 488 and 489 of SEQ ID NO: 2; SEQ ID NO: 16) protein fragments. Then, cells were immunostained with anti-FAM19A5 (1-65) and anti-LRRC4B antibodies to determine the expression of FAM19A5 and full-length LRRC4B proteins, respectively. The hFc-fused LRRC4B protein fragments were determined using an anti-hIgG antibody. The nuclei were stained with Hoechst 33342.

binding of FAM19A5 protein to LRRC4B (amino acids 453-576)-hFc, sequence (Q7Z5A7 44-132): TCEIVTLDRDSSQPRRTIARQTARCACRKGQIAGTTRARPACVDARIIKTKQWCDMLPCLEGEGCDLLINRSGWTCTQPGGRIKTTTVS

Question: Which “Inhibition rate (%) LRRC4B (amino acids 453-576)-hFc” value (“Inhibition rate (%) LRRC4B” for short) ([1]; Table 8, 20 nM peptide, FAM19A5 1 ng/mL) does the source give for GYTYFTTVTVETLETQPGEE [FB-20] here?
Answer: 63.2%

Question: What about the “Inhibition rate (%) LRRC4B” value ([1]; Table 9, deletion variants, 20 nM peptide, FAM19A5 1 ng/mL) of the same molecule?
Answer: 62.0%

Question: What about the “Inhibition rate (%) LRRC4B” value ([1]; Table 10, alanine/asparagine mutants) of the same molecule?
Answer: 63.2%

B1: LRRC4B (453-576): LRRC4B ectodomain fragment, amino acids 453-576 of SEQ ID NO: 2; FLAG-tagged or hFc-fused (protein)
chain: VSAVDPVAAGGTGSGGGGPGGSGGVGGGSGGYTYFTTVTVETLETQPGEEALQPRGTEKEPPGPTTDGVWGGGRPGDAAGPASSSTTAPAPRSSRPTEKAFTVPITDVTENALKDLDDVMKTTK
modifications: FLAG tag or human Fc
notes: FLAG-tagged or hFc-fused
Question: For B1, which “dissociation of FAM19A5 from full-length LRRC4B protein” value [2] is on record?
Answer: largely dissociated from the full-length LRRC4B protein
